Reference: patent publication US12618845B2, “Methods and compositions for protein sequencing” (Quantum-Si Incorporated, priority 2018, dated 2026)
Like-named read-outs stand apart in the source and are kept apart here.

B1: Rat APN (protein)
chain: KPWNQYRLPKTLIPDSYQVTLRPYLTPNEQGLYIFKGSSTVRFTCNETTNVIIIHSKKLNYTNKGNHRVALRALGDTPAPNIDTTELVERTEYLVVHLQGSLVKGHQYEMDSEFQGELADDLAGFYRSEYMEGGNKKVVATTQMQAADARKSFPCFDEPAMKASFNITLIHPNNLTALSNMLPKDSRTLQEDPSWNVTEFHPTPKMSTYLLAYIVSEFKYVEAVSPNRVQIRIWARPSAIDEGHGDYALQVTGPILNFFAQHYNTAYPLEKSDQIALPDFNAGAMENWGLVTYRESALVFDPQSSSISNKERVVTVIAHELAHQWFGNLVTVDWWNDLWLNEGFASYVEFLGADYAEPTWNLKDLIVLNDVYRVMAVDALASSHPLSSPANEVNTPAQISELFDSITYSKGASVLRMLSSFLTEDLFKKGLSSYLHTFQYSNTIYLDLWEHLQQAVDSQTAIKLPASVSTIMDRWILQMGFPVITVNTSTGEIYQEHFLLDPTSKPTRPSDFNYLWIVPIPYLKNGKEDHYWLETEKNQSAEFQTSSNEWLLLNINVTGYYQVNYDENNWRKIQNQLQTDLSVIPVINRAQIIHDSFNLASAGKLSITLPLSNTLFLASETEYMPWEAALSSLNYFKLMFDRSEVYGPMKRYLKKQVTPLFAYFKIKTNNWLDRPPTLMEQYNEINAISTACSSGLEECRDLVVGLYSQWMNNSDNNPIHPNLRSTVYCNAIAFGGEEEWNFAWEQFRKATLVNEADKLRSALACSNEVWILNRYLSYTLNPDYIRKQDATSTIVSIANNVVGQTLVWDFVRSNWKKLFEDYGGGSFSFANLIQGVTRRFSSEFELQQLEQFKEDNSATGFGSGTRALEQALEKTKANIKWVKENKDVVLKWFTENS
B2: hTET: Pyrococcus horikoshii TET aminopeptidase, SEQ ID NO: 59 (protein, listed as Pyrococcus horikoshii)
chain: MEVRNMVDYELLKKVVEAPGVSGYEFLGIRDVVIEEIKDYVDEVKVDKLGNVIAHKKGEGPKVMIAAHMDQIGLMVTHIEKNGFLRVAPIGGVDPKTLIAQRFKVWIDKGKFIYGVGASVPPHIQKPEDRKKAPDWDQIFIDIGAESKEEAEDMGVKIGTVITWDGRLERLGKHRFVSIAFDDRIAVYTILEVAKQLKDAKADVYFVATVQEEVGLRGARTSAFGIEPDYGFAIDVTIAADIPGTPEHKQVTHLGKGTAIKIMDRSVICHPTIVRWLEELAKKHEIPYQLEILLGGGTDAGAIHLTKAGVPTGALSVPARYIHSNTEVVDERDVDATVELMTKALENIHELKI
B3: PfuTET: Pfu aminopeptidase I (protein)
chain: MVDWELMKKIIESPGVSGYEHLGIRDLVVDILKDVADEVKIDKLGNVIAHFKGSAPKVMVAAHMDKIGLMVNHIDKDGYLRVVPIGGVLPETLIAQKIRFFTEKGERYGVVGVLPPHLRREAKDQGGKIDWDSIIVDVGASSREEAEEMGFRIGTIGEFAPNFTRLSEHRFATPYLDDRICLYAMIEAARQLGEHEADIYIVASVQEEIGLRGARVASFAIDPEVGIAMDVTFAKQPNDKGKIVPELGKGPVMDVGPNINPKLRQFADEVAKKYEIPLQVEPSPRPTGTDANVMQINREGVATAVLSIPIRYMHSQVELADARDVDNTIKLAKALLEELKPMDFTPLE

Tested on: peptide substrates
Format: biochemical
[1] = substrate AAPFQQ (SEQ ID NO: 118), 1 mM Peptide, 1 μM enzyme, 10 mM Mg(OAc)2, 50 mM MOPS pH 8, 60 mM KOAc, RT/0.5 hr
[2] = substrate CCPFQQ (SEQ ID NO: 144), 1 mM Peptide, 1 μM enzyme, 10 mM Mg(OAc)2, 50 mM MOPS pH 8, 60 mM KOAc, RT/0.5 hr
[3] = substrate DDPFQQ (SEQ ID NO: 126), 1 mM Peptide, 1 μM enzyme, 10 mM Mg(OAc)2, 50 mM MOPS pH 8, 60 mM KOAc, RT/0.5 hr
[4] = substrate EEPFQQ (SEQ ID NO: 128), 1 mM Peptide, 1 uM enzyme, 10 mM Mg(OAc)2, 50 mM MOPS pH 8, 60 mM KOAc, RT/0.5 hr
[5] = substrate FFPFQQ (SEQ ID NO: 124), 1 mM Peptide, 1 μM enzyme, 10 mM Mg(OAc)2, 50 mM MOPS pH 8, 60 mM KOAc, RT/0.5 hr
[6] = substrate GGPFQQ (SEQ ID NO: 152), 1 mM Peptide, 1 uM enzyme, 10 mM Mg(OAc)2, 50 mM MOPS pH 8, 60 mM KOAc, RT/0.5 hr
[7] = substrate HHPFQQ (SEQ ID NO: 154), 1 mM Peptide, 1 uM enzyme, 10 mM Mg(OAc)2, 50 mM MOPS pH 8, 60 mM KOAc, RT/0.5 hr
[8] = substrate IIPFQQ (SEQ ID NO: 136), 1 mM Peptide, 1 μM enzyme, 10 mM Mg(OAc)2, 50 mM MOPS pH 8, 60 mM KOAc, RT/0.5 hr
[9] = substrate KKPFQQ (SEQ ID NO: 120), 1 mM Peptide, 1 uM enzyme, 10 mM Mg(OAc)2, 50 mM MOPS pH 8, 60 mM KOAc, RT/0.5 hr
[10] = substrate LLPFQQ (SEQ ID NO: 138), 1 mM Peptide, 1 μM enzyme, 10 mM Mg(OAc)2, 50 mM MOPS pH 8, 60 mM KOAc, RT/0.5 hr
[11] = substrate MMPFQQ (SEQ ID NO: 148), 1 mM Peptide, 1 uM enzyme, 10 mM Mg(OAc)2, 50 mM MOPS pH 8, 60 mM KOAc, RT/0.5 hr
[12] = substrate NNPFQQ (SEQ ID NO: 130), 1 mM Peptide, 1 μM enzyme, 10 mM Mg(OAc)2, 50 mM MOPS pH 8, 60 mM KOAc, RT/0.5 hr
[13] = substrate PPPFQQ (SEQ ID NO: 150), 1 mM Peptide, 1 uM enzyme, 10 mM Mg(OAc)2, 50 mM MOPS pH 8, 60 mM KOAc, RT/0.5 hr
[14] = substrate QQPFQQ (SEQ ID NO: 132), 1 mM Peptide, 1 μM enzyme, 10 mM Mg(OAc)2, 50 mM MOPS pH 8, 60 mM KOAc, RT/0.5 hr
[15] = substrate RRPFQQ (SEQ ID NO: 116), 1 mM Peptide, 1 uM enzyme, 10 mM Mg(OAc)2, 50 mM MOPS pH 8, 60 mM KOAc, RT/0.5 hr
[16] = substrate SSPFQQ (SEQ ID NO: 140), 1 mM Peptide, 1 μM enzyme, 10 mM Mg(OAc)2, 50 mM MOPS pH 8, 60 mM KOAc, RT/0.5 hr
[17] = substrate TTPFQQ (SEQ ID NO: 142), 1 mM Peptide, 1 μM enzyme, 10 mM Mg(OAc)2, 50 mM MOPS pH 8, 60 mM KOAc, RT/0.5 hr
[18] = substrate VVPFQQ (SEQ ID NO: 134), 1 mM Peptide, 1 μM enzyme, 10 mM Mg(OAc)2, 50 mM MOPS pH 8, 60 mM KOAc, RT/0.5 hr
[19] = substrate WWPFQQ (SEQ ID NO: 146), 1 mM Peptide, 1 μM enzyme, 10 mM Mg(OAc)2, 50 mM MOPS pH 8, 60 mM KOAc, RT/0.5 hr
[20] = substrate YYPFQQ (SEQ ID NO: 122), 1 mM Peptide, 1 μM enzyme, 10 mM Mg(OAc)2, 50 mM MOPS pH 8, 60 mM KOAc, RT/0.5 hr

| Molecule | HPLC Assay Conv [1] [%] | HPLC Assay Conv [2] [%] | HPLC Assay Conv [3] [%] | HPLC Assay Conv [4] [%] | HPLC Assay Conv [5] [%] | HPLC Assay Conv [6] [%] | HPLC Assay Conv [7] [%] | HPLC Assay Conv [8] [%] | HPLC Assay Conv [9] [%] | HPLC Assay Conv [10] [%] | HPLC Assay Conv [11] [%] | HPLC Assay Conv [12] [%] | HPLC Assay Conv [13] [%] | HPLC Assay Conv [14] [%] | HPLC Assay Conv [15] [%] | HPLC Assay Conv [16] [%] | HPLC Assay Conv [17] [%] | HPLC Assay Conv [18] [%] | HPLC Assay Conv [19] [%] | HPLC Assay Conv [20] [%] | other results |
| --- | --- | --- | --- | --- | --- | --- | --- | --- | --- | --- | --- | --- | --- | --- | --- | --- | --- | --- | --- | --- | --- |
| B1 |  |  |  |  |  |  |  |  |  |  |  |  |  |  |  |  |  |  |  |  | HPLC Assay Conv (substrate AAPAAP{LYSN3}NH2 (SEQ ID NO: 98), 1 mM peptide, 50 nM enzyme, 2.5 mM ZnCl2, 25 mM Tris pH 8.0, 30° C./1 hr): 100%; HPLC Assay Conv (substrate KKMKKMLys-Triazole-PEG4 Biotin (SEQ ID NO: 89), 1 mM peptide, 150 nM enzyme, 2.5 mM ZnCl2 25 mM Tris pH 8.0, 30° C./1 hr): >90%; HPLC Assay Conv (substrate KKMKKM{LYSN3}NH2 (SEQ ID NO: 71), 1 mM peptide, 50 nM enzyme, 2.5 mM ZnCl2, 25 mM Tris pH 8.0, 30° C./1 hr): 50%; HPLC Assay Conv (substrate KKPKKP{LYSN3}NH2 (SEQ ID NO: 100), 1 mM peptide, 50 nM enzyme, 2.5 mM ZnCl2, 25 mM Tris pH 8.0, 30° C./1 hr): 85%; HPLC Assay Conv (substrate QP5-Atto649N ([…]{LYSN3}NH2) (SEQ ID NO: 106), 37 μM Peptide, 100 nM Enzyme, 2.5 mM ZnCl2, 25 mM Tris pH 8.0, 37° C./0.5 hr): >95%; HPLC Assay Conv (substrate RRPRRP{LYSN3}NH2 (SEQ ID NO: 96), 1 mM peptide, 50 nM enzyme, 2.5 mM ZnCl2, 25 mM Tris pH 8.0, 30° C./1 hr): 55% |
| B2 | 100 | 32 | 4 | 0 | 100 | 33 | 26 | 100 | 0 | 100 | 0 | 69 | 0 | 63 | 0 | 100 | 100 | 100 | 4 | 99 | HPLC Assay Conv (substrate […]1 (SEQ ID NO: 156), 1 mM Peptide, 1.0 μM enzyme, 10 mM Mg(OAc)2, 50 mM MOPS pH 8, 60 mM KOAc, RT/0.5 hr): 100%; HPLC Assay Conv (substrate […], 200 μM Peptide, 2 μM, 37° C. (rest of the wrapped entry lies below the rows shown)): 55%; HPLC Assay Conv (substrate […]{LYSN3}NH2 (SEQ ID NO: 107), 200 μM Peptide, 2 μM enzyme, 10 mM MgCl2, 50 mM MOPS pH 8.0, 37° C./1 hr): 55%; HPLC Assay Conv (substrate […]{LYSN3}NH2 (SEQ ID NO: 109), 200 μM Peptide, 4 μM enzyme, 10 mM MgCl2, 50 mM MOPS pH 8.0, 37° C./1 hr): 100% |
| B3 | 100 | 72 | 86 | 93 | 65 | 0 | 19 | 0 | 100 | 99 | 100 | 81 | 0 | 100 | 100 | 90 | 100 | 0 | 37 | 100 |  |
